The results in this text go back to article PMC6409194 (European journal of pharmacology, 2019).

By Kd is commonly meant the concentration at which binding is half-saturated. A high value points to weaker binding.

The assay concerns the target calmodulin (UniProt P0DP23 1-149). The assay is described as follows: other fluorescence titration.

Turning to FKKAFQNVLRIQCLCRKQSSQHAAGYTLH (domain or fragment), binding was put at a Kd of 3.8 µM.
